The term stoichiometry N denotes a count of units in the complex or per binding partner.

Data set [1] concerns the molecule itself. In words: native MS; LAT1 alone; sample and conditions not told in the text (Supplementary Fig. 12C).
The target in data set [2] is T1, 4F2 cell-surface antigen heavy chain (4F2hc, SLC3A2), fully glycosylated (human, UniProt P08195-1 1-630, four highly branched, sialylated N-glycans at Asn365, Asn381, Asn424 and Asn506 (9 to 16 sialic acid residues); one phosphorylation site (residue not given)).
T1 construct: 4F2 cell-surface antigen heavy chain (4F2hc, SLC3A2), human, full-length cDNA in pCAG; source: HEK293F, co-transfected with LAT1, purified (anti-Flag M2 resin, Ni-NTA, SEC) in digitonin
T1 sequence (looked up): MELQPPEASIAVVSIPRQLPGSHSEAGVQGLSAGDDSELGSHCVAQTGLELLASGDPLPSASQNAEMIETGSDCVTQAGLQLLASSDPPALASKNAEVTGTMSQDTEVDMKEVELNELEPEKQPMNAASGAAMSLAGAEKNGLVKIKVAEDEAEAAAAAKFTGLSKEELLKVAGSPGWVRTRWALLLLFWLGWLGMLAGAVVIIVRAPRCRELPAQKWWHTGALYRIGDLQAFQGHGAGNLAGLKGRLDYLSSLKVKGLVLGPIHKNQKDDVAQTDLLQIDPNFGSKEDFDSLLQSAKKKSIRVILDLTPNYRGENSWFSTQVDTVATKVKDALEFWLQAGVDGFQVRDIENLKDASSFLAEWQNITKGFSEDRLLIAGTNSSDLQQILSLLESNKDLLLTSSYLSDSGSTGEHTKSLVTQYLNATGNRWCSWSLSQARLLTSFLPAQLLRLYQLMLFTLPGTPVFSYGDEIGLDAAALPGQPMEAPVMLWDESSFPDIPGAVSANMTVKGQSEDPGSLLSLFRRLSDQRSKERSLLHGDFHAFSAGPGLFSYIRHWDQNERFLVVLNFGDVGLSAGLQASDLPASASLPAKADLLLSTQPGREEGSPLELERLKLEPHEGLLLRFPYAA
In words: native MS; complex at about 4 µM in 200 mM ammonium acetate pH 7.0 with 2 mM OGNG, released from OGNG micelles, Q Exactive UHMR, positive mode. As to conditions: both partners purified.

For data set [3], the target named is T2, 4F2hc, desialylated (neuraminidase-treated) (human, UniProt P08195-1 1-630, N-glycans at Asn365, Asn381, Asn424 and Asn506 without sialic acid (neuraminidase); fucosylation and branching retained).
T2 construct: 4F2 cell-surface antigen heavy chain (4F2hc, SLC3A2), human, full-length cDNA in pCAG; also called desialylated 4F2hc; source: HEK293F, co-transfected with LAT1, purified, then neuraminidase digestion
T2 sequence (looked up): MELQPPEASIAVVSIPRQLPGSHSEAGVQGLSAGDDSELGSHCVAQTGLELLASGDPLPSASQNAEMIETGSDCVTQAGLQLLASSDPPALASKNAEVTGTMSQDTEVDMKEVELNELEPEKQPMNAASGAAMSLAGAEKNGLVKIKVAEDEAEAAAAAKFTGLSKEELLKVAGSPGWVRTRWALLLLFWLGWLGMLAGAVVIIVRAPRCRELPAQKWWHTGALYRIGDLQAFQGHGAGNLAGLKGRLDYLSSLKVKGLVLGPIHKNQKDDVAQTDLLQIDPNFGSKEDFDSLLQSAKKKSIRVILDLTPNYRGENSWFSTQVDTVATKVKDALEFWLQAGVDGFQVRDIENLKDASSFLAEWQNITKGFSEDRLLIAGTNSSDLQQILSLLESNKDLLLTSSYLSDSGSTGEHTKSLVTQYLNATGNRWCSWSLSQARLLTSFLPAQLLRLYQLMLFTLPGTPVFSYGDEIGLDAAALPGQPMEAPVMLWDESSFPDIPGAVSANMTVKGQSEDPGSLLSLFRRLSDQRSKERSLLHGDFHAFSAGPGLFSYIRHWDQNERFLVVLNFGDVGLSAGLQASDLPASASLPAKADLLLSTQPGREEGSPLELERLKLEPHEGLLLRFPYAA
Described as above. As to conditions: both partners purified.

Data set [4] concerns the molecule itself. The description is as above.

B1: L-type amino acid transporter 1 (LAT1, SLC7A5) (natural protein)
chain: not shown
modifications: phosphoserine at S35 (mono-phosphorylated proteoform, part of the population)
notes: L-type amino acid transporter 1 (LAT1, SLC7A5), human, full-length cDNA in pCAG; also called light chain; source: HEK293F, co-transfected with 4F2hc, purified (anti-Flag M2 resin, Ni-NTA, SEC) in digitonin
On to B1, for which the “stoichiometry N” value in data set [1] was 2. For the same molecule, the binding result in data set [2] and in data set [3] was “binds” in each case.

B2: LAT1-4F2hc heterodimer, wild type, fully glycosylated (complex)
chain 1: not shown
chain 2: MELQPPEASIAVVSIPRQLPGSHSEAGVQGLSAGDDSELGSHCVAQTGLELLASGDPLPSASQNAEMIETGSDCVTQAGLQLLASSDPPALASKNAEVTGTMSQDTEVDMKEVELNELEPEKQPMNAASGAAMSLAGAEKNGLVKIKVAEDEAEAAAAAKFTGLSKEELLKVAGSPGWVRTRWALLLLFWLGWLGMLAGAVVIIVRAPRCRELPAQKWWHTGALYRIGDLQAFQGHGAGNLAGLKGRLDYLSSLKVKGLVLGPIHKNQKDDVAQTDLLQIDPNFGSKEDFDSLLQSAKKKSIRVILDLTPNYRGENSWFSTQVDTVATKVKDALEFWLQAGVDGFQVRDIENLKDASSFLAEWQNITKGFSEDRLLIAGTNSSDLQQILSLLESNKDLLLTSSYLSDSGSTGEHTKSLVTQYLNATGNRWCSWSLSQARLLTSFLPAQLLRLYQLMLFTLPGTPVFSYGDEIGLDAAALPGQPMEAPVMLWDESSFPDIPGAVSANMTVKGQSEDPGSLLSLFRRLSDQRSKERSLLHGDFHAFSAGPGLFSYIRHWDQNERFLVVLNFGDVGLSAGLQASDLPASASLPAKADLLLSTQPGREEGSPLELERLKLEPHEGLLLRFPYAA
modifications: phosphoserine at S35 (mono-phosphorylated proteoform, part of the population) | four highly branched, sialylated N-glycans at Asn365, Asn381, Asn424 and Asn506 (9 to 16 sialic acid residues); one phosphorylation site (residue not given)
notes: L-type amino acid transporter 1 (LAT1, SLC7A5), human, full-length cDNA in pCAG; 4F2 cell-surface antigen heavy chain (4F2hc, SLC3A2), human, full-length cDNA in pCAG; The two chains are joined by a disulfide bond; Two such heterodimers form the super-dimer (LAT1-4F2hc)2; also called LAT1-4F2hc complex; SLC7A5-SLC3A2; source: HEK293F, co-transfected, purified (anti-Flag M2 resin, Ni-NTA, SEC) in …
Regarding B2, the “stoichiometry N” value in data set [4] turned out to be 2.

For the origin of these results see PMC11065870, “The complete assembly of human LAT1-4F2hc complex provides insights into its regulation, function and localisation” (Nature Communications, 2024).
